Results reported in the Immune Epitope Database (IEDB).

Tests used:
[1] = biological target: HLA-A*02:03; assay: IEDB peptide-MHC binding, purified MHC/competitive/fluorescence; filed as Kd, often an IC50 or EC50 that approximates it; ≥ and ≤ were set here for values at or beyond the usual limits of such assays
[2] = biological target: HLA-A*31:01; assay: as above; conditions: source organism: Human immunodeficiency virus 1
[3] = biological target: HLA-A*30:01; assay: as above; conditions: source organism: Human immunodeficiency virus 1
[4] = biological target: HLA-B*39:01; assay: as above
[5] = biological target: HLA-A*02:06; assay: as above; conditions: source organism: Human immunodeficiency virus 1
[6] = biological target: HLA-C*12:03; assay: IEDB peptide-MHC binding, purified MHC/direct/fluorescence; filed as Kd, often an IC50 or EC50 that approximates it; ≥ and ≤ were set here for values at or beyond the usual limits of such assays
[7] = biological target: HLA-C*03:03; assay: as above
[8] = biological target: HLA-A*02:01; assay: IEDB peptide-MHC binding, purified MHC/competitive/fluorescence; filed as Kd, often an IC50 or EC50 that approximates it; ≥ and ≤ were set here for values at or beyond the usual limits of such assays
[9] = biological target: HLA-B*57:01; assay: as above
[10] = biological target: HLA-B*15:01; assay: as above
[11] = biological target: HLA-B*46:01; assay: as above
[12] = biological target: HLA-B*51:01; assay: as above
[13] = biological target: HLA-A*02:12; assay: as above
[14] = biological target: HLA-A*69:01; assay: as above
[15] = biological target: HLA-B*27:03; assay: as above
[16] = biological target: HLA-A*03:01; assay: as above
[17] = biological target: HLA-A*26:01; assay: as above
[18] = biological target: HLA-B*18:01; assay: as above; conditions: source organism: Yersinia pestis Nepal516
[19] = biological target: HLA-A*68:02; assay: as above
[20] = biological target: HLA-B*07:02; assay: as above
[21] = biological target: HLA-B*35:01; assay: as above
[22] = biological target: HLA-A*02:19; assay: as above; conditions: source organism: Entamoeba dispar SAW760
[23] = biological target: HLA-A*29:02; assay: as above; conditions: source organism: Entamoeba dispar SAW760
[24] = biological target: HLA-A*23:01; assay: as above; conditions: source organism: Rickettsia sibirica 246
[25] = biological target: HLA-B*08:01; assay: as above; conditions: source organism: Yersinia pestis Nepal516
[26] = source organism: Human immunodeficiency virus 1
[27] = source organism: Vaccinia virus WR
[28] = source organism: Yersinia pestis Nepal516
[29] = source organism: Bacillus cereus G9241
[30] = source organism: Entamoeba dispar SAW760
[31] = source organism: Mycobacterium avium

Which Kd [1, 26] does the source give for EKLKSLYNTI here?
Its Kd is 23.9 nM.

What about the Kd [2] of the same sequence?
Its Kd is 4470 nM.

What about the Kd [3] of the same sequence?
The Kd was 72 nM.

What about the Kd [4, 26] of the same sequence?
The Kd was 747 nM.

What about the Kd [5] of the same sequence?
The Kd was 3710 nM.

Which results are given for FLRDNLYHV?
Kd [6, 27]: 29 nM; Kd [7, 27]: ≥ 20000 nM; Kd [8, 27]: 1.6 nM

For ILHRLAPWI, which Kd [9, 28] is on record?
The Kd was no less than 20000 nM.

What about the Kd [10, 28] of the same sequence?
The Kd was no less than 20000 nM.

What about the Kd [11, 28] of the same sequence?
Its Kd is no less than 20000 nM.

And the Kd [12, 28]?
The Kd was no less than 20000 nM.

And the Kd [13, 28]?
The Kd was 103 nM.

And the Kd [14, 28]?
Its Kd is no less than 20000 nM.

And the Kd [15, 28]?
The Kd was no less than 20000 nM.

What about the Kd [16, 28] of the same sequence?
The Kd was no less than 20000 nM.

What about the Kd [17, 28] of the same sequence?
Its Kd is no less than 20000 nM.

What about the Kd [4, 28] of the same sequence?
Its Kd is no less than 20000 nM.

And the Kd [8, 28]?
Its Kd is 47.3 nM.

And the Kd [18]?
Its Kd is no less than 20000 nM.

What about the Kd [19, 28] of the same sequence?
Its Kd is no less than 20000 nM.

What does the source list for IPLSILLTL?
Kd [12, 29]: 954 nM; Kd [20, 29]: 28 nM; Kd [21, 29]: 0.4 nM

With KDGTLFYCY as the sequence, how does the Kd [9, 30] read?
The Kd was no less than 20000 nM.

What about the Kd [10, 30] of the same sequence?
The Kd was no less than 20000 nM.

And the Kd [1, 30]?
Its Kd is no less than 20000 nM.

What about the Kd [11, 30] of the same sequence?
The Kd was no less than 20000 nM.

What about the Kd [12, 30] of the same sequence?
The Kd was no less than 20000 nM.

What about the Kd [13, 30] of the same sequence?
Its Kd is no less than 20000 nM.

What about the Kd [14, 30] of the same sequence?
The Kd was no less than 20000 nM.

What about the Kd [15, 30] of the same sequence?
Its Kd is no less than 20000 nM.

What about the Kd [16, 30] of the same sequence?
The Kd was no less than 20000 nM.

What about the Kd [17, 30] of the same sequence?
Its Kd is no less than 20000 nM.

And the Kd [4, 30]?
Its Kd is no less than 20000 nM.

And the Kd [22]?
Its Kd is no less than 20000 nM.

What about the Kd [23] of the same sequence?
The Kd was 106 nM.

What about the Kd [19, 30] of the same sequence?
The Kd was no less than 20000 nM.

Which Kd [24] does the source give for KFVAGAMNI here?
The Kd was 11.7 nM.

LAANFVVAL was tested. Which Kd [6, 31] did it give?
Its Kd is 206 nM.

And the Kd [7, 31]?
Its Kd is 124 nM.

Which results are given for LPLNRAYPL?
Kd [25]: 60 nM; Kd [12, 28]: 2570 nM; Kd [4, 28]: 9.3 nM; Kd [20, 28]: 6.3 nM; Kd [21, 28]: ≤ 0.1 nM
